Ends that are not written are not given here.
Molecular target: PD-L1 (Homo sapiens, UniProt Q9NZQ7)
Experiment: Immunohistochemistry using Cy5-peptide (fluorescence) on FFPE tissues and lung cancer TMA
Assay type: binding
Parameters: Seven PD-L1 expressing NSCLC patient tissues were obtained from the MU OneHealth tissue bank; tissue MU OneHealth tissue bank; U.S. Biomax (TMA) LC1923; host or cells: FFPE placenta, seven NSCLC patient tissues, 192-case lung cancer tissue microarray, four Hodgkin's lymphoma cases
Excerpt: PD-L1 expression was investigated in the same seven FFPE tissues and 192 lung cancer cases on a microarray using our peptide conjugated with Cy5 fluorophore. A lung cancer tissue microarray (TMA) was purchased from U.S. Biomax that contains 192 separate cases of various types of lung cancers (LC1923, biomax.us). In addition, seven NSCLC patient tissues were obtained from the Mizzou OneHealth tissue bank and de-identified according to IRB protocols. Paraffin-embedded tissue slides were baked overnight, then de-waxed and rehydrated according to standard protocols. Tissue sections were then subjected to antigen retrieval in EDTA at 95° C. for 20 minutes in EDTA ([…]). The solution was cooled for an additional 20 minutes on the bench top prior to buffer rinse. Tissues were then incubated with 15 μM Cy5-conjugated peptide for 2 hours in a humid chamber in the dark at RT. After 2 hours, slides were washed with buffer. The slides were then mounted using nucleus-specific DAPI counterstain and cover slipped. Slides were then imaged using fluorescence microscopy on a Leica DM5500 and compared to the same sections which had been stained with the Ventana antibody. For fluorescent analysis, DAPI channels and Cy5 channels were overlaid to image cell nuclei and PD-L1 expression, respectively.
Staining of the placenta and seven selected NSCLC patient tissues was again compared using the SP263 antibody and RK-10-Cy5 which was conjugated with a Cy5 fluorophore (FIG. 16). To stain with the fluorescent PD-L1 peptide, antigen retrieval was performed and tissue slides were treated with 15 μM fluorescent peptide in a dark, humid chamber for 2 hours, washed with buffer, then counter-stained and mounted with DAPI nucleus stain. Peptide-stained slides were imaged on a Leica DM5500 using channels specific for DAPI or Cy5, and channels were overlaid to examine PD-L1 expression. To confirm the data from the IHC stained tissues, the same seven patient tissues A-G were stained with RK-10-Cy5 (FIG. 10). […]

PD-L1, sequence (Q9NZQ7 19-290): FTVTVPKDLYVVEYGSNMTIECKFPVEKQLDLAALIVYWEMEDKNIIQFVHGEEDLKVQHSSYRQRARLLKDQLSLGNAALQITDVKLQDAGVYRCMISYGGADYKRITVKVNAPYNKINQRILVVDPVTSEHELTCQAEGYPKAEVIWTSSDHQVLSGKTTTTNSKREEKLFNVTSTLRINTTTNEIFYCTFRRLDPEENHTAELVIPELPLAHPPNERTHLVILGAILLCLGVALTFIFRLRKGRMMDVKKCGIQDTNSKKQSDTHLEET

Substance: Cy5-GSGSGSTYLCGAISLAPKAQIKESL [RK-10-Cy5]
- tumor staining in lung cancer tissue microarray (192 lung cancer cases (U.S. Biomax TMA), majority of cases, FIG. 11 panels d, e, f): consistent, specific staining in tumor cells and immune infiltrate
- staining of Reed-Sternberg cells (four Hodgkin's lymphoma patient samples, FIG. 13): showed PD-L1 staining
- fluorescent tumor staining in NSCLC patient tissues (seven NSCLC patient tissues A-G, 15 μM fluorescent peptide, 2 hours, FIG. 10): stained many areas of tumor that the SP263 antibody did not
